The results in this text go back to patent US20160160238.

What all share (experiment): cell_activity
Data set [1] relates to TALEN ssNF1ex42.2 left (synthetic (Xanthomonas TALE-FokI)?). Particulars: HDR by RFLP, pig fibroblasts, 3 days 30 C; pair with P4, 16 bp spacer.
The test system of data set [2] is TALEN ssTP53 E6 right (synthetic (Xanthomonas TALE-FokI)?). Particulars: Surveyor (Cel) assay, co-transfected with ssNF1 42.3; pair with P7, 16 bp spacer.
The subject of data set [3] is TALEN ssNF1ex42.2 right (synthetic (Xanthomonas TALE-FokI)?). To be noted: HDR by RFLP, pig fibroblasts, 3 days 30 C; pair with P3, 16 bp spacer.
Data set [4] relates to TALEN ssNF1ex42.3 right (synthetic (Xanthomonas TALE-FokI)?). To be noted: HDR by RFLP, pig fibroblasts, 3 days 30 C; pair with P5, 16 bp spacer; 25.5% when co-transfected with ssTP53 E6.
Data set [5] deals with TALEN ssNF1ex42.3 left (synthetic (Xanthomonas TALE-FokI)?). Particulars: HDR by RFLP, pig fibroblasts, 3 days 30 C; pair with P6, 16 bp spacer; 25.5% when co-transfected with ssTP53 E6.
In data set [6] the test system is TALEN ssTP53 E6 left (synthetic (Xanthomonas TALE-FokI)?). Particulars: Surveyor (Cel) assay, co-transfected with ssNF1 42.3; pair with P8, 16 bp spacer.
Data set [7] relates to TALEN ssNF1ex42.1 right (synthetic (Xanthomonas TALE-FokI)?). Particulars: HDR by RFLP, pig fibroblasts, 3 days 30 C; pair with P1, 16 bp spacer.
The test system of data set [8] is TALEN ssNF1ex42.1 left (synthetic (Xanthomonas TALE-FokI)?). Particulars: HDR by RFLP, pig fibroblasts, 3 days 30 C; pair with P2, 16 bp spacer.

Regarding “AAGCACAATGATGATGC (double strand) [NF1 exon 42 site, 42.2 left half-site]”, the activity (% allele modification) in data set [1] was determined as 45.1.
“AAGTCAGAGTACATG (double strand) [TP53 exon 6 site, right half-site]” returned an activity in data set [2] of 11.8 % cutting.
In data set [3], “ACTGCGATCCTTGATA (double strand) [NF1 exon 42 site, 42.2 right half-site]” yielded an activity (% allele modification) of 45.1.
In data set [4], “CCTTGATAAGCTGATA (double strand) [NF1 exon 42 site, 42.3 right half-site]” showed an activity (% allele modification) of 27.2.
“GATGATGCCAAACGAC (double strand) [NF1 exon 42 site, 42.3 left half-site]”: in data set [5], the activity (% allele modification) was 27.2.
In data set [6], “GGCACCCGTGTCCGCGC (double strand) [TP53 exon 6 site, left half-site]” showed an activity of 11.8 % cutting.
With “GTTACTGCGATCCTTG (double strand) [NF1 exon 42 site, 42.1 right half-site]”, in data set [7], the activity (% allele modification) stood at 54.2.
In turn, “TGTAAGCACAATGATGA (double strand) [NF1 exon 42 site, 42.1 left half-site]” had an activity (% allele modification) in data set [8] of 54.2.
